The record followed here is the supplement of paper PMC5998384.

For data set [1], the system named is HeLa Kyoto. The data set can be described thus: solubility in G1/S (NP-40 vs SDS abundance) (log2 ratio); higher = more soluble. To be noted: cell cycle stage: G1/S.
Data set [2] concerns HeLa Kyoto. The data set can be described thus: melting temperature (median over replicates), in situ; higher = more thermally stable.
Data set [3] relates to HeLa Kyoto. The data set can be described thus: solubility change mitosis vs G1/S (difference of NP-40 vs SDS log2 ratios) (log2 ratio difference); higher = more soluble in mitosis.
For data set [4], the system named is HeLa Kyoto. The data set can be described thus: thermal stability score vs G1/S (z-score of summed log2 fold changes over temperatures); higher = more thermally stable than in G1/S.
Where [5] appears, read: cell cycle stage: early G1 (4.5 h after nocodazole release).
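For melting temperature (median over replicates), in situ in this document: HeLa Kyoto cells synchronized by double thymidine or nocodazole block, proteins quantified by TMT10plex mass spectrometry, three independent biological replicates.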
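For solubility change mitosis vs G1/S (difference of NP-40 vs SDS log2 ratios) in this document: synchronized HeLa Kyoto cells (double thymidine block for G1/S, nocodazole release for mitosis), protein amounts in NP-40 versus SDS lysates quantified by mass spectrometry, three biological replicates.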
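For solubility in G1/S (NP-40 vs SDS abundance) in this document: HeLa Kyoto cells arrested at G1/S by double thymidine block, proteins quantified by TMT10plex mass spectrometry in mild NP-40 versus SDS extracts, three biological replicates.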
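For thermal stability score vs G1/S (z-score of summed log2 fold changes over temperatures) in this document: synchronized HeLa Kyoto cells, proteins quantified by TMT10plex mass spectrometry, three biological replicates, mitosis taken 0.5 h after nocodazole release, G1/S directly after double thymidine block.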

On to “MLLLAAAFLVAFVLLLYMVSPLISPKPLALPGAHVVVTGGSSGIGKCIAIECYKQGAFITLVARNEDKLLQAKKEIEMHSINDKQVVLCISVDVSQDYNQVENVIKQAQEKLGPVDMLVNCAGMAVSGKFEDLEVSTFERLMSINYLGSVYPSRAVITTMKERRVGRIVFVSSQAGQLGLFGFTAYSASKFAIRGLAEALQMEVKPYNVYITVAYPPDTDTPGFAEENRTKPLETRLISETTSVCKPEQVAKQIVKDAIQGNFNSSLGSDGYMLSALTCGMAPVTSITEGLQQVVTMGLFRTIALFYLGSFDSIVRRCMMQREKSENADKTA [KDSR]”, for which the “solubility in G1/S (log2)” value with HeLa Kyoto [1] was -0.701. Besides, the melting temperature in the data set with HeLa Kyoto [2] (cell cycle stage: G1/S) was determined as 60 °C; in the data set with HeLa Kyoto [2] (cell cycle stage: mitosis), 57.9 °C. For the same substance, the “solubility change mitosis (log2)” value in the data set with HeLa Kyoto [3] was -0.0925. The thermal stability score with HeLa Kyoto [4] (setting [5]) is -2.49; in the data set on HeLa Kyoto [4] (cell cycle stage: mitosis), -3.38.
“MQDPNADTEWNDILRKKGILPPKESLKELEEEAEEEQRILQQSVVKTYEDMTLEELEDHEDEFNEEDERAIEMYRRRRLAEWKATKLKNKFGEVLEISGKDYVQEVTKAGEGLWVILHLYKQGIPLCALINQHLSGLARKFPDVKFIKAISTTCIPNYPDRNLPTIFVYLEGDIKAQFIGPLVFGGMNLTRDELEWKLSESGAIMTDLEENPKKPIEDVLLSSVRRSVLMKRDSDSEGD [PDCL3]”: in the data set on HeLa Kyoto [1], the “solubility in G1/S (log2)” value is 0.617. The melting temperature with HeLa Kyoto [2] (cell cycle stage: G1/S) and in the data set with HeLa Kyoto [2] (cell cycle stage: mitosis) was 54.2 °C in each case. Moreover, the “solubility change mitosis (log2)” value in the data set on HeLa Kyoto [3] is -0.135. Also, the thermal stability score was -0.23 in the data set on HeLa Kyoto [4] (setting [5]) and -0.106 in the data set on HeLa Kyoto [4] (cell cycle stage: mitosis).
In the case of “MWRGLWTLAAQAARGPRRLCTRRSSGAPAPGSGATIFALSSGQGRCGIAVIRTSGPASGHALRILTAPRDLPLARHASLRLLSDPRSGEPLDRALVLWFPGPQSFTGEDCVEFHVHGGPAVVSGVLQALGSVPGLRPAEAGEFTRRAFANGKLNLTEVEGLADLIHAETEAQRRQALRQLDGELGHLCRGWAETLTKALAHVEAYIDFGEDDNLEEGVLEQADIEVRALQVALGAHLRDARRGQRLRSGVHVVVTGPPNAGKSSLVNLLSRKPVSIVSPEPGTTRDVLETPVDLAGFPVLLSDTAGLREGVGPVEQEGVRRARERLEQADLILAMLDASDLASPSSCNFLATVVASVGAQSPSDSSQRLLLVLNKSDLLSPEGPGPGPDLPPHLLLSCLTGEGLDGLLEALRKELAAVCGDPSTDPPLLTRARHQHHLQGCLDALGHYKQSKDLALAAEALRVARGHLTRLTGGGGTEEILDIIFQDFCVGK [GTPBP3]”, in the data set on HeLa Kyoto [1], the “solubility in G1/S (log2)” value stood at 0.505. For the same substance, the melting temperature in the data set on HeLa Kyoto [2] (cell cycle stage: G1/S) was 53.2 °C; in the data set on HeLa Kyoto [2] (cell cycle stage: mitosis) it was 52.4 °C. In the data set with HeLa Kyoto [3], the “solubility change mitosis (log2)” value was 0.0593. Besides, the figures for the thermal stability score in the data set with HeLa Kyoto [4] (setting [5]) and with HeLa Kyoto [4] (cell cycle stage: mitosis) were -0.238 and -0.0908, respectively.
Take ARHGAP21: the “solubility in G1/S (log2)” value with HeLa Kyoto [1] was -0.453. In addition, the melting temperature in the data set with HeLa Kyoto [2] (cell cycle stage: G1/S) was 47.6 °C; in the data set on HeLa Kyoto [2] (cell cycle stage: mitosis), 50.2 °C. In the data set on HeLa Kyoto [3], the “solubility change mitosis (log2)” value was 0.156. Also, the thermal stability score amounted to 0.0615 with HeLa Kyoto [4] (setting [5]) and 0.748 with HeLa Kyoto [4] (cell cycle stage: mitosis).
As for “MAEAVLRVARRQLSQRGGSGAPILLRQMFEPVSCTFTYLLGDRESREAVLIDPVLETAPRDAQLIKELGLRLLYAVNTHCHADHITGSGLLRSLLPGCQSVISRLSGAQADLHIEDGDSIRFGRFALETRASPGHTPGCVTFVLNDHSMAFTGDALLIRGCGRTDFQQGCAKTLYHSVHEKIFTLPGDCLIYPAHDYHGFTVSTVEEERTLNPRLTLSCEEFVKIMGNLNLPKPQQIDFAVPANMRCGVQTPTA [ETHE1]”, the “solubility in G1/S (log2)” value with HeLa Kyoto [1] came out at 0.214. Moreover, the melting temperature in the data set on HeLa Kyoto [2] (cell cycle stage: G1/S) turned out to be 56.6 °C; in the data set on HeLa Kyoto [2] (cell cycle stage: mitosis), 56.5 °C. Also, the “solubility change mitosis (log2)” value in the data set with HeLa Kyoto [3] was -0.0383. Also, the values for the thermal stability score in the data set with HeLa Kyoto [4] (setting [5]) and in the data set on HeLa Kyoto [4] (cell cycle stage: mitosis) were -1 and -1.06, respectively.
